From the nanobody polyreactivity screen of Harvey et al. (2022)

Experiment: yeast display, Sf9 membrane polyspecificity reagent, FACS + sequencing; frameworks hold sequencing errors
Procedure, shortened: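 After 36–48 hours of galactose induction, yeast (Saccharomyces cerevisiae BJ5465) displaying a synthetic nanobody library were stained at 4 °C for 1 hour with 10% biotinylated, detergent-solubilized Sf9 membrane reagent. Streptavidin microbeads enriched the stained cells before FACS sorting into low and high (top ~1%) gates on anti-HA and streptavidin fluorescence. Each clone's polyreactivity label reflects its gate of origin.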

Row | Sequence | polyreactivity (PSR sort gate)
1 | QVQLVESGGGLVQAGGSLRLSCAASGSTFARYAMGWYRQAPGKERELVAAISGGGGSTYYADSVKGRFTISRDNAKNTVYLQMNSLKPEDTAVYYCAKLLARGNRYDSWGQGTQVTVSS | high polyreactivity
2 | QVQLVESDGGLVQAGGSLRLSCAASGYIFGGYAMRWYRHAPGKERELVAAISYGVGSTYYADSVKGRFTISRDNAKNTVYLQMNSLKPEDTAVYYCAADVFFYVYEAYLLYYWGQGTQVTVSS | low polyreactivity
3 | QVQLVESGGGLVQAGGSLRLSCAASGRIFTPYVLGWYRQAPGKERELVARISWTGSSTYYADSVKGRFTISRDNAKNTVYLQMNSLKPEDTAVYYCAKRLTRFYTRLEYWGQGTQVTVSS | low polyreactivity
4 | QVQLVESGGGLVQAGGSLRLSCAASGIIIKYYAMGWYRQAPGKERELVAAITDRGGSTYYADSVKGRFTISRDNAKNTVYLQMNSLKPEDTAVYYCAARRRAYTPYYYWGQGTQVTVSS | high polyreactivity
5 | QVQLVESGGGLVQAGGSLRLSCAASGSSFDIYVMGWYRQAPGKERELLAAISRVGNTSYADSVKGRFTISRDNGKNTVYLQMNKHETGIYRGHYCGAGLVGAGYITYNDYDYWGQGTQVSVSS | low polyreactivity
6 | QVQLVESGGGLVQAGGSLRLSCAASGRIIGNYAMGWYRPAPGKERELVARISQSGGSTYYADSVKGRFTISRDHAKNSLYLQMNSLKPEDTAVYYCAKRGRYRYDRDNRYEYWGQGTQVNVSS | low polyreactivity
7 | QVQLVESGGGLVQAGGSLRLSCAASGLIFVINAMGWYRQAPGTERELVATISSGVSTNYADSVKGRFTISRDNAKNTVYLQMNSLKPEDTAVYYCNKGQTVSRGYRLYERYVYWGQGTQVTVSS | low polyreactivity
8 | QVQLVESGGGLVQAGGSLRLSCAASGRTFFNYGMGWYRQAPGKEREFVARISFSGGSTYYADSVKGRFTISRDNAKNTVYLQMNSVKPEDTAVYYCNARVFPFAYRYGYWGQGTQVTVSS | high polyreactivity
9 | QVQHVETGGGLVQAGGSLRLSCAATGYTLYRYPMGWYRQAPGKERELVARISYRTGSTYYADSVKGRFTISRDKAKNTVYLQMNSLKPEDTAVYYCAKYPGISGYKYWGQGTQVTVSS | high polyreactivity
10 | QVQLVESGGGLVQAGGSLRLSCAASGFTFDWYAMGWYRQAPGKERELVAAISSSGRTNYADSVKGRFTISRDNAKNTVYLQMNSLKPEDTAVYYCNRDYPYIWHKGARYWHENDYWGQGTQVTVSS | low polyreactivity
11 | HVQLGESGGGLVQAGGSLRLSCAASGRNFERNVMGWYRPATGKERELVAGIRSDGDRTYYADSVKGRFTISRDNSKNTVYLQLKSLKPEDTAVYYCAVVWYDKGRQTRYNYWGQGTQVTVSS | high polyreactivity
12 | QVQLVESGGGLDQAGGSLRLSCAASGRIFTYNAMGWYRPAPGKERELVAVISRRGGSTYYADSVKGRFTISRDNAKNTVYLQMNSLKPEDTAVYYCAAGGSVFYDNRYDYWGQGTQVTVSS | low polyreactivity
13 | QVQLVESGGGLVQAGGSLRLSCAASGSTFRYYAMGWYRQAPGKERELVAVISASGGTTYYADSVKGRFTISRDNAKNTVYLQMNSLKPEDTAVYYCAAREGWGFYYWGQGTQVTVSS | high polyreactivity
14 | QVQLVESGGGIVQVGRSLPISSAAYGRTFVYYAMGWYRQAPGKERELVARISRSGGRTFYADSVKGRFTISRDNAKNTVYLVLYSQKPEDTAVYYCNSSDVHVTTYGYWGQGTQVSVSS | low polyreactivity
15 | QVQLVESGGGLVQAGGSLRLSCAASGSTFAVNAMRSYRQAPGKEREFVAAISFGTGSTYYADSVKGRFTISRDNAKKTVYLQMNSLKPEDTAVYYCNAEASGYYWWWGYDYWGQGTQVTVSS | low polyreactivity
16 | QVQLVESGGGLVQAGGSLRLSCAASGFTYRKYALGWYRQAPGKERELVAVINIVGSTYYADSVKGRFTISRDNAKNTVYLQMYSLTPEDTAVYYCAADWSYRLKYYWYGGFKYWGQGTQVTVSS | high polyreactivity
17 | QVQLVESGGGIVQAGGSLRLSCAASGITSYFNAMGWYRQAPGKERELVAITWNGGSTYYADSVKGRFTISRDNAMNTVYLQMNSLKPEDTAVYYCAARYRRYNRKYDYWGQGTQVTVSS | high polyreactivity
18 | QVQLVESGGGLVQEGGSLRLSCAASGSILIVYAMGWYRQATGKERELVAAITRGGRTNYADSVKGRFTISRDNAKNTVYLQMNSLKPEDTAVYYCAARVLPANVKPYNYWGQGTQVTVSS | high polyreactivity
19 | QVQLVESGGGLVQAGGSLRLSCAASGSIFGRYAMGWYRQAPGKERELVAAISRTGVSTYYADSVKGRFTISRDNAKNTVYLQMNSLKPEDTAVYYCNAVRLSWQNTYYYWGQGTQVTVSS | high polyreactivity
20 | QVQLVESGGGLVQAGGSLRLSCAASGSIFPGYAMGWYRQAPGKERELVATITWSGGSTYYADSVKGRFTISRDKAKNTVYLQMNSLKPEDTAVYYCNADSNWYYQWNYYGLYDYWGQGTQVTVSS | low polyreactivity
21 | QVQLVESGGGLVQAGGSLRLSCAASGNIFSKYVRGWYRQARGKERELVAAITYSGGSTYYADSVKGRFTISRDNSKNTVYLQMNSLKPEDTGVYYCNAVRRRSSLKLDSWGQGTQVTVSS | high polyreactivity
22 | QVQLVESGGGLVQAGGSLRLSCAASGSTFSFYDMGWSRQAPGKEPELVAAITGSGGTTYYADSVKVRFTISRDNAKNTVYFQMNILKPEDTAFYYCAADSLESYPDYEYDFWGQGTQVTVSS | low polyreactivity

Row | Sequence | polyreactivity (PSR sort gate)
23 | QLQLVESGGGLVQAGGSLRLSCAASGNNIVFYAMGRYRQAPGKERELVAAMTSGGSTNYADSVKGRFTISRDNAKNTVYLQMNSLKPEATAVYYCAARQWFAHRRWGGSRYDYWGQGTQGTVSS | low polyreactivity
24 | QVQLVESGGGLVQAGGSLRLSCAASGRTFTFYTMGWYRQAPGKERELVAAITRSGGGTYYADSVKGRFTISRDNAKNTVYLQMNSLKPEDTAVYYCAAYNRNAFHWGQGTQVTVSS | high polyreactivity
25 | QVQLVESGGGLVQAGGSLRLSCAASGRTFLFNGMGWYRQAPGKERELVASITRGGSTYADSVKGRFTISRDNAKNTGYVQMNSLNPEDTAVYDCNAYFWFPYNYWGQGTQVTVSS | high polyreactivity
26 | QVQLVESGGGLVQAGGSLRLSCAASGRIFLWYAMGWYRQAPGKERELVAAIWRGGSTYYADSVKGRFTISRDNAKNTVYLLMNSLKPEDTAVYYCAAEDVYFGYDYWGQGTQVTVSS | low polyreactivity
27 | QVQLVESGGGLVQAGGSLRLSCAASGFTFWIYAMGWYRQAPGKERELVAVISRGGSTYYADSVKGRFTISRDNAKNTVYLQMNSLKPEDTAVYYCNAVGVRGYDYWGQGTQVTVSS | high polyreactivity
28 | QVQLVESGGGLVQAGGSLRLSFAASGRTFYYYASRWYRQAPGKERELVARIRSGGSTNYADSVKGRFTISRDNAKNTFYLQMNSLKPEDTAVYYCNALGAKGYVKGFDYRGQGTQVTVSS | low polyreactivity
29 | QVQLVESGGGLVQAGGSLRLSCAASGYTFPSYALGWYRQAPGKERELVAVITIGGTYYADSVKGRFTISRDNAKNTVYLQMNSLKPEDTAVYYCAADWAWDYYRGFDYLGQGTQVTVSS | low polyreactivity
30 | QVQLVESGGGIVPAGGSLRLSCAASGLTFRFNAMGWYRQAPGKERELVADITVSGGRTYYADSVKGRFTISRDNAKNTVYLQMNSLKPEDTAVYYCARRRTVGVTEPFSRGYDYWGQGTQVTVSS | low polyreactivity
31 | QVQLVESGGGLVQAGGSLRLSCAASGSTFVRNAMGWYRQAPGKERELVAGISTGDNTYYADSVKGRFTISRDNAKNTVNLQMNSLKPEDTAVYYCAARGLPSNYYYYVHGYIMDYWGQGTQVTVSS | low polyreactivity
32 | QVQLVESGGGLVQAGGSLRLSCAASGRIFSWNAMGWYRQAPGKERELVAAITIGGGTYYADSVKGRFTISRDNAKNTVYLQMNSLKPEDTAVYYCNAYRRKLWYPTGMYWGQGTQVTVSS | high polyreactivity
33 | QVQLVESGGGLVHAGGSLRLSCAASGFIYDAYANGWYRQSPGKERELVAAIDSGGSTDYADSVKGRFTISRDNAKNTVYLQMNSLKPEDTAVYYCNAERAYLWWYNFDYWGQGTQVTVSS | low polyreactivity
34 | QVQLVESGGGLVQAGGSLRLSCAASGITSARYAMGWYRQAPGKERELVAAITLSGVRTYYADSVKGRFTISRDQAKNTVYLQMNSLKPEDTAVYYCNTVYYSKWGQGTQVTVSS | low polyreactivity
35 | QVQLVESGGGLVQAGGSLRLSCAASGIIFDYTAMGWYRQAPGKERELVAAITSTDNTNYADSVKGRFTISRDNAKNTVYLQMNSLKPEDTAVYYCNTDYWLSVVYAMDYWGQGTQVTVSS | low polyreactivity
36 | QVQLVESGGGLVQAGGSLRLSCAASGSNFGEYAMGWYRQAPGKERELVAAITSGGNTYYADSVKGRFTISRDNAKNTVYLQMNSLKPEDTAVYYCAATRTRYWGGDYWGQGTQVTVSS | low polyreactivity
37 | QVQLVESGGGLVQAGGILRLSCAASGLTFAKYAMGWYRQAPGKERELVAAITKSSGSTYYADSVKGRFTISRDNAKNTVYFQMNSLKPEDTAVYYCAAGIYAFRRHREEYHYWGQGTQVTVSS | high polyreactivity
38 | QVQLVESGGGLVQAGGSLRLSCAASGSISVVNMGWYRQPPRKERQFVASITSSGSTTYADSVKGRFTISRDNAKNTVYLQMNSLKPEDTAVYYCAADVGTDYTYQHPAGAAYDYWGEGTQVTVSS | low polyreactivity
39 | QVQLVESGGGLVQAGGSLRLSCAASGRIFHANAMGWSRQAPGKERELVAGISRNGGRTYYADSVKGRFTISRDNAKNTVYLQMNSLKPEDTAVYYCNALHWQSKELDYFWGQGTQVTVSS | high polyreactivity
40 | QVQLVESGGGLVQAGGSLRLSCAASGSTFGSYAMGWYRQAPGKVRELVASIRSSGTSTYYADSVKGRFTISRDNAKNTVYLQMNSLKPEDTAVYYCAKRYFTWRSTYNYWGQGTQVTVSS | high polyreactivity
41 | QVQLVESGGGLVQAGGSLRLSCAASGSIFRIYAMGWYRQSPGKERELVAAISFSTGSRTYYADSVKGRFTISRDNAKNTVYLQMNSLKPEDTAVYYCNAESYYDYNYWGQGTQVTVSS | low polyreactivity
42 | QVQLVESGGGLVQAGGILRLSCPASGIIFDGNVMGWYRQAPGKEREFVASISISGGSTSYADSVKGRFTISRDNAKNTVYLQMNSLKPEDTAVYYCNTDVGYGRVWRWRYHGDYWGQGTQVTVSS | low polyreactivity
43 | QVQLVESGGGLVQAGGSLRLSCAASGITFVPYAMGWSRQAPGKERELVAAITWRGGSTYYADSVKGRFTISRDNAKNTVYLQMNSLKPEDTAVYYCAVKFRSSQYQLQYGSLGQGTQVTVSS | high polyreactivity
